Each block holds one binder with its values, some of them ahead of it.
What was measured:
[1] = target: T1, human FcγRIIB extracellular domain protein (human, UniProt P31994 43-217); assay: SPR (refers to Table 4, Fc fragments)
T1 construct: extracellular domain; SPR: His-tagged, immobilised; ELISA: biotinylated; also called hFcγRIIB; CD32b
T1 sequence (looked up): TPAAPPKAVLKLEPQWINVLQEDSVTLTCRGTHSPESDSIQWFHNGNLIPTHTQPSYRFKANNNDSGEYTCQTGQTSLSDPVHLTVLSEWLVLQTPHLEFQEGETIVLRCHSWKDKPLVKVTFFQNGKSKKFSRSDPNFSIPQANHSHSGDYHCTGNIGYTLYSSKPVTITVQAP

[2] = target: T2, human FcγRIIA-R131 extracellular domain protein (human, UniProt P12318 34-217); assay: ELISA, coated antibody, biotinylated FcγR extracellular domain
T2 construct: extracellular domain; SPR: His-tagged, immobilised; ELISA: biotinylated; also called hFcγRIIA-R131; CD32a
T2 sequence (looked up): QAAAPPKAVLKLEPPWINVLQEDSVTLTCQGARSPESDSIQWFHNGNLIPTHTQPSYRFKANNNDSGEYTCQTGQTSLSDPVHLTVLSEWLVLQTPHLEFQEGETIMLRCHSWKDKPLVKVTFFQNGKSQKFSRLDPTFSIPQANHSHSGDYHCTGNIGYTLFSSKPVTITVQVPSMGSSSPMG
Protocol: The ELISA plate was coated with 100 μL antibody at an appropriate concentration overnight, supernatant being discarded. The plate was blocked with 1% BSA in PBS for 2 hours, followed by washing with PBST (PBS with 0.05% Tween 20). Then, biotinylated FcγR extracellular domain protein (Sino Biologic Inc., Beijing China) at a concentration as appropriate was added and incubated at room temperature for 1 hour, supernatant being discarded, followed by PBST wash. Streptavidin-HRP (BD Biosciences) was added and incubated at room temperature for 1 hour for detection of biotin protein. After removal of supernatant, developing solution was added to react for 20-40 minutes, and absorbance was determined at 650 nm (A650).

[3] = target: T3, human FcγRIIIA-F158 extracellular domain protein (human, UniProt P08637 17-208); assay: SPR, Biacore T100, FcγR extracellular domain immobilised
T3 construct: extracellular domain; SPR: His-tagged, immobilised; also called hFcγRIIIA-F158; CD16a
T3 sequence (P08637 17-208): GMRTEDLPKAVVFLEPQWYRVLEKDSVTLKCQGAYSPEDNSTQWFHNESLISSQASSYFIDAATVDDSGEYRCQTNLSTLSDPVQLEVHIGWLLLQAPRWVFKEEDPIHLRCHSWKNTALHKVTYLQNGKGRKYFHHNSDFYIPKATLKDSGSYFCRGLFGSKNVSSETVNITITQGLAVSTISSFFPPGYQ

[4] = target: T1, human FcγRIIB extracellular domain …; assay: SPR, Biacore T100, FcγR extracellular domain immobilised, 1:1 model
[5] = target: T2, human FcγRIIA-R131 extracellular domain …; assay: as above
[6] = target: T4, human FcγRI extracellular domain protein (human, UniProt P12314 16-292); assay: as above
T4 construct: extracellular domain; also called hFcγRI; CD64
T4 sequence (P12314 16-292): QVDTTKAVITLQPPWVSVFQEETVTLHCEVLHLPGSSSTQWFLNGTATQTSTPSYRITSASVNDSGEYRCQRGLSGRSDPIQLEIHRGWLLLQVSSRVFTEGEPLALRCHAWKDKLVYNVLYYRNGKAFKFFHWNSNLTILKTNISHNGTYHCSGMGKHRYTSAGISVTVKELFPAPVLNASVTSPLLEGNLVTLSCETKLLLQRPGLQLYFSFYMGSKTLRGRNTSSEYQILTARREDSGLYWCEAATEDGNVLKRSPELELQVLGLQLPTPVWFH

[7] = target: T1, human FcγRIIB extracellular domain …; assay: SPR; [lower of KD(hFcγRIIA-R131) and KD(hFcγRIIIA-F158)]/KD(hFcγRIIB)
[8] = target: T1, human FcγRIIB extracellular domain …; assay: SPR; fold against G1
[9] = target: T4, human FcγRI extracellular domain protein; assay: SPR, Biacore T100, FcγR extracellular domain immobilised

- binding result [1]: binds
B1: Anti-mCD40-hIgG2-GASDALIE (antibody)
heavy: EVQLVESDGGLVQPGRSLKLPCAASGFTFSDYYMAWVRQAPTKGLEWVASISYDGSSTYYRDSVKGRFTISRDNAKSTLYLQMDSLRSEDTATYYCGRHSSYFDYWGQGVMVTVSSASTKGPSVFPLAPCSRSTSESTAALGCLVKDYFPEPVTVSWNSGALTSGVHTFPAVLQSSGLYSLSSVVTVPSSNFGTQTYTCNVDHKPSNTKVDKTVERKCCVECPPCPAPELLAGPDVFLFPPKPKDTLMISRTPEVTCVVVDVSHEDPEVKFNWYVDGVEVHNAKTKPREEQYNSTYRVVSVLTVLHQDWLNGKEYKCKVSNKALPLPEEKTISKAKGQPREPQVYTLPPSRDELTKNQVSLTCLVKGFYPSDIAVEWESNGQPENNYKTTPPVLDSDGSFFLYSKLTVDKSRWQQGNVFSCSVMHEALHNHYTQKSLSLSPGK
light: DTVLTQSPALAVSPGERVTISCRASDSVSTLMHWYQQKPGQQPKLLIYLASHLESGVPARFSGSGSGTDFTLTIDPVEADDTATYYCQQSWNDPWTFGGGTKLELKRTVAAPSVFIFPPSDEQLKSGTASVVCLLNNFYPREAKVQWKVDNALQSGNSQESVTEQDSKDSTYSLSSTLTLSKADYEKHKVYACEVTHQGLSSPVTKSFNRGEC
notes: Chimeric anti-murine CD40 antibody

- binding result [2]: no binding
B2: Anti-mCD40-hIgG2-NA (antibody)
heavy: EVQLVESDGGLVQPGRSLKLPCAASGFTFSDYYMAWVRQAPTKGLEWVASISYDGSSTYYRDSVKGRFTISRDNAKSTLYLQMDSLRSEDTATYYCGRHSSYFDYWGQGVMVTVSSASTKGPSVFPLAPCSRSTSESTAALGCLVKDYFPEPVTVSWNSGALTSGVHTFPAVLQSSGLYSLSSVVTVPSSNFGTQTYTCNVDHKPSNTKVDKTVERKCCVECPPCPAPPVAGPSVFLFPPKPKDTLMISRTPEVTCVVVDVSHEDPEVQFNWYVDGVEVHNAKTKPREEQFASTFRVVSVLTVVHQDWLNGKEYKCKVSNKGLPAPIEKTISKTKGQPREPQVYTLPPSREEMTKNQVSLTCLVKGFYPSDIAVEWESNGQPENNYKTTPPMLDSDGSFFLYSKLTVDKSRWQQGNVFSCSVMHEALHNHYTQKSLSLSPGK
light: B1 light
notes: Chimeric anti-murine CD40 antibody, heavy chain constant region G2-NA (N297A)

- binding result [3]: no binding
- Kd [4]: 14 nM
- Kd [5]: 3.8 µM
- Kd [6]: 230 nM
- I/A ratio [7]: 271
- folds of increase in hFcγRIIB binding [8]: 94 fold
B3: Fc fragment of heavy chain constant region V11(H1) (hIgG1 G237D/P238D/H268D/P271G/A330R) (other)
chain: PELLGDDSVFLFPPKPKDTLMISRTPEVTCVVVDVSDEDGEVKFNWYVDGVEVHNAKTKPREEQYNSTYRVVSVLTVLHQDWLNGKEYKCKVSNKALPRPIEKTISKAKGQPREPQVYTLPPSRDELTKNQVSLTCLVKGFYPSDIAVEWESNGQPENNYKTTPPVLDSDGSFFLYSKLTVDKSRWQQGNVFSCSVMHEALHNHYTQKSLSLSPGK

- binding result [9]: no binding
- folds of increase in hFcγRIIB binding [8]: < 0.4 fold
B4: Fc fragment of heavy chain constant region G2 (hIgG2) (other)
chain: PPVAGPSVFLFPPKPKDTLMISRTPEVTCVVVDVSHEDPEVQFNWYVDGVEVHNAKTKPREEQFNSTFRVVSVLTVVHQDWLNGKEYKCKVSNKGLPAPIEKTISKTKGQPREPQVYTLPPSREEMTKNQVSLTCLVKGFYPSDIAVEWESNGQPENNYKTTPPMLDSDGSFFLYSKLTVDKSRWQQGNVFSCSVMHEALHNHYTQKSLSLSPGK

Reference: US20190263918A1 (SHANGHAI JIAO TONG UNIVERSITY SCHOOL OF MEDICINE, published 2019)
